# Data taken from the Immune Epitope Database (IEDB).
# Columns and labels:
# HLA-B*15:03 = assay: IEDB peptide-MHC binding, purified MHC/competitive/radioactivity; filed as Kd, often an IC50 or EC50 that approximates it; ≥ and ≤ were set here for values at or beyond the usual limits of such assays; settings: source organism: Vaccinia virus WR
# HLA-A*02:01 = assay: as above
# HLA-B*35:01 = assay: as above
# HLA-B*53:01 = assay: as above
# HLA-B*07:02 = assay: as above
# HLA-B*51:01 = assay: as above
# HLA-B*54:01 = assay: as above
# HLA-A*03:01 = assay: IEDB peptide-MHC binding, purified MHC/competitive/fluorescence; filed as Kd, often an IC50 or EC50 that approximates it; ≥ and ≤ were set here for values at or beyond the usual limits of such assays; settings: source organism: Francisella tularensis subsp. holarctica OSU18
# HLA-A*11:01 = assay: IEDB peptide-MHC binding, purified MHC/competitive/fluorescence; ≥ and ≤ were set here for values at or beyond the usual limits of such assays; settings: source organism: Vaccinia virus WR
# HLA-A*69:01 = assay: IEDB peptide-MHC binding, purified MHC/competitive/fluorescence; filed as Kd, often an IC50 or EC50 that approximates it; ≥ and ≤ were set here for values at or beyond the usual limits of such assays; settings: source organism: dengue virus type 2
# HLA-A*02:06 = assay: IEDB peptide-MHC binding, purified MHC/competitive/radioactivity; filed as Kd, often an IC50 or EC50 that approximates it; ≥ and ≤ were set here for values at or beyond the usual limits of such assays; settings: source organism: Dengue virus 2 Jamaica/1409/1983
# HLA-A*68:02 = assay: IEDB peptide-MHC binding, purified MHC/competitive/fluorescence; filed as Kd, often an IC50 or EC50 that approximates it; ≥ and ≤ were set here for values at or beyond the usual limits of such assays; settings: source organism: Entamoeba dispar SAW760
# [1] = source organism: SARS coronavirus Tor2
# [2] = source organism: Vaccinia virus WR
# [3] = source organism: Lymphocytic choriomeningitis virus (strain WE)
sequence,measurement,setting,value
KKMTCGQPL,Kd,HLA-B*15:03,1.51 nM
KLVSLGVNAV,Kd,HLA-A*02:01; source organism: Hepatitis C virus subtype 1b,344 nM
KPASRELSV,Kd,HLA-B*35:01; [1],11800 nM
same,Kd,HLA-B*53:01; [1],14400 nM
same,Kd,HLA-B*07:02; [1],5.7 nM
same,Kd,HLA-B*51:01; [1],631 nM
same,Kd,HLA-B*54:01; [1],9540 nM
KPVIVPDIKL,Kd,HLA-B*35:01; [2],8870 nM
same,Kd,HLA-B*53:01; [2],5200 nM
same,Kd,HLA-B*07:02; [2],236 nM
same,Kd,HLA-B*51:01; [2],≥ 69600 nM
same,Kd,HLA-B*54:01; [2],3810 nM
KTYYHHTGY,Kd,HLA-A*03:01,5.2 nM
LDAVIRANN,IC50,HLA-A*11:01,≥ 169000 nM
LVAGGLLTV,Kd,HLA-A*69:01,≥ 20000 nM
same,Kd,HLA-A*02:06,3.95 nM
MPEWVNFKF,Kd,HLA-B*35:01; [3],8.71 nM
same,Kd,HLA-B*53:01; [3],20 nM
same,Kd,HLA-B*07:02; [3],2210 nM
same,Kd,HLA-B*51:01; [3],≥ 20400 nM
same,Kd,HLA-B*54:01; [3],1000 nM
MYIFLPVML,Kd,HLA-A*68:02,94.1 nM
NPNCLEWLRA,Kd,HLA-B*35:01; [2],1160 nM
same,Kd,HLA-B*53:01; [2],2050 nM
same,Kd,HLA-B*07:02; [2],17400 nM
same,Kd,HLA-B*51:01; [2],≥ 69600 nM
same,Kd,HLA-B*54:01; [2],20.2 nM
PPLISILMI,Kd,HLA-B*35:01; [2],19300 nM
same,Kd,HLA-B*53:01; [2],818 nM
same,Kd,HLA-B*07:02; [2],7300 nM
same,Kd,HLA-B*51:01; [2],91.2 nM
same,Kd,HLA-B*54:01; [2],8780 nM
QLIPCMDVVL,Kd,HLA-A*02:01; source organism: Triticum aestivum,384 nM
